B1: Serine/threonine-protein kinase Nek2 (Homo sapiens), P51955 (parent)
chain: MPSRAEDYEVLYTIGTGSYGRCQKIRRKSDGKILVWKELDYGSMTEAEKQMLVSEVNLLRELKHPNIVRYYDRIIDRTNTTLYIVMEYCEGGDLASVITKGTKERQYLDEEFVLRVMTQLTLALKECHRRSDGGHTVLHRDLKPANVFLDGKQNVKLGDFGLARILNHDTSFAKTFVGTPYYMSPEQMNRMSYNEKSDIWSLGCLLYELCALMPPFTAFSQKELAGKIREGKFRRIPYRYSDELNEIITRMLNLKDYHRPSVEEILENPLIADLVADEQRRNLERRGRQLGEPEKSQDSSPVLSELKLKEIQLQERERALKAREERLEQKEQELCVRERLAEDKLARAENLLKNYSLLKERKFLSLASNPELLNLPSSVIKKKVHFSGESKENIMRSENSESQLTSKSKCKDLKKRLHAAQLRAQALSDIEKNYQLKSRQILGMR

Variants of: B1
Settings: with apc4_human ANAPC4, Q9UJX5
Chain of apc4_human ANAPC4, Q9UJX5 (Q9UJX5 whole entry): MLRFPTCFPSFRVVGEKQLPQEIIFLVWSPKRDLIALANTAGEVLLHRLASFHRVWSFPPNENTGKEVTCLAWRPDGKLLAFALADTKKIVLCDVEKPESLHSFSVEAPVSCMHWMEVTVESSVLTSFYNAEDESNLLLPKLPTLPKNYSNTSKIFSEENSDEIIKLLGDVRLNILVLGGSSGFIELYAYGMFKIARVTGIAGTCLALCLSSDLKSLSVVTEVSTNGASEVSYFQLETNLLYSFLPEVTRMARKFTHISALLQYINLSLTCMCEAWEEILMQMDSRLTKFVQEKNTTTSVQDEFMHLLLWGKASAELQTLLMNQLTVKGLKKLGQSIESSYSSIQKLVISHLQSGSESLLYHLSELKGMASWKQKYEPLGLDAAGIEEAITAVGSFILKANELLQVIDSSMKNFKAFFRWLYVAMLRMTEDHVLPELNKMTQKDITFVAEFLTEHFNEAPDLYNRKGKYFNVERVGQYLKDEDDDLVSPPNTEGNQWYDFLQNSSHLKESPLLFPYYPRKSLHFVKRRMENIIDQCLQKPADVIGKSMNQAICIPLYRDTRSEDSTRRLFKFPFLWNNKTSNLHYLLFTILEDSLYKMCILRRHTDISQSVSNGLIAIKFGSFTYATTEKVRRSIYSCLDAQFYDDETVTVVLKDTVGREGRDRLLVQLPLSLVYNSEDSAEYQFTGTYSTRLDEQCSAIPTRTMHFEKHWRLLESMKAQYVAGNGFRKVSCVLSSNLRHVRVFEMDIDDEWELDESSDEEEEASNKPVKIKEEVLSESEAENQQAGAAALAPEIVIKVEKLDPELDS

effect of a mutation on the interaction | Variant
decreasing interaction | MPSRAEDYEVLYTIGTGSYGRCQKIRRKSDGKILVWKELDYGSMTEAEKQMLVSEVNLLRELKHPNIVRYYDRIIDRTNTTLYIVMEYCEGGDLASVITKGTKERQYLDEEFVLRVMTQLTLALKECHRRSDGGHTVLHRDLKPANVFLDGKQNVKLGDFGLARILNHDTSFAKTFVGTPYYMSPEQMNRMSYNEKSDIWSLGCLLYELCALMPPFTAFSQKELAGKIREGKFRRIPYRYSDELNEIITRMLNLKDYHRPSVEEILENPLIADLVADEQRRNLERRGRQLGEPEKSQDSSPVLSELKLKEIQLQERERAAKAREERLEQKEQELCVRERLAEDKLARAENLLKNYSLLKERKFLSLASNPELLNLPSSVIKKKVHFSGESKENIMRSENSESQLTSKSKCKDLKKRLHAAQLRAQALSDIEKNYQLKSRQILGMR [L320A]
decreasing interaction | MPSRAEDYEVLYTIGTGSYGRCQKIRRKSDGKILVWKELDYGSMTEAEKQMLVSEVNLLRELKHPNIVRYYDRIIDRTNTTLYIVMEYCEGGDLASVITKGTKERQYLDEEFVLRVMTQLTLALKECHRRSDGGHTVLHRDLKPANVFLDGKQNVKLGDFGLARILNHDTSFAKTFVGTPYYMSPEQMNRMSYNEKSDIWSLGCLLYELCALMPPFTAFSQKELAGKIREGKFRRIPYRYSDELNEIITRMLNLKDYHRPSVEEILENPLIADLVADEQRRNLERRGRQLGEPEKSQDSSPVLSELKLKEIQAQERERALKAREERLEQKEQELCVRERLAEDKLARAENLLKNYSLLKERKFLSLASNPELLNLPSSVIKKKVHFSGESKENIMRSENSESQLTSKSKCKDLKKRLHAAQLRAQALSDIEKNYQLKSRQILGMR [L313A]
